Source: patent publication US20250171543A1 (TAIZHOU ENZE MEDICAL CENTER GROUP, published 2025)

What was measured:
[1] = biological target: T1, immunogen peptide QTDRMNLQTLRGYYNQSEAS (positions 72-91 in the heavy chain α1 domain of the HLA-G molecule) (human); assay: ELISA on coated peptide, 2-fold dilution series
T1 construct: Synthetic peptide, coated on the ELISA plate at 2 µg/ml; also called antigen
T1 peptide: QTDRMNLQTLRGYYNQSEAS
Experimental: (§1) The antigen (SEQ No.19 [sequence]) was diluted with coating solution to a final concentration of 2 μg/ml, 10 μL/well, overnight at 4° C.; then washed twice with the washing solution; blocked with the blocking solution at 200 μL/well, incubated at 37° C. for 2 hours; then washed once with the washing solution. The purified antibody was diluted gradiently with PBS by 2-fold starting from 200-fold, using PBS as the blank control, both 100 μL/well, incubated at 37° C. for 1 hour; and then washed 3 times with the washing solution. The secondary antibody diluted by 20,000-fold with PBS was added at 100 L/well, and incubated in a 37° C. incubator for 1 hour; taken out and washed 3 times with the washing solution. Then color development was performed with the developing solution at 100 μL/well for 5-15 minutes. Then 50 μL of stop solution was added, and the absorbance was measured at dual wavelengths (450, 630), and a plot was drawn for analysis.

HLA-G7 = biological target: T2, HLA-G7 (human, UniProt P17693-7 25-116); assay: immunoblot of standard proteins, antibody 1.0 µg/ml
T2 construct: also called HLA-G isoform standard protein HLA-G7; K562-HLA-G7
Experimental: After SDS-PAGE electrophoresis and transferred to PVDF membrane, the HLA-G isoform standard proteins HLA-G1, HLA-G2, HLA-G3, HLA-G4, HLA-G5, HLA-G6, HLA-G7 and HLA-G molecular standard proteins lacking al domain were blocked with 5% skimmed milk powder at room temperature for 4 hours, and washed with 0.2% TBS (Tween-20 PBS).

HLA-G2 = biological target: T3, HLA-G2 (human, UniProt P17693-2 25-246); assay: intracellular flow cytometry, FITC-labeled antibody on permeabilised K562-HLA-G2 cells
T3 construct: also called HLA-G isoform standard protein HLA-G2; K562-HLA-G2
Experimental: (§2) The cell cultures expressing the K562 (blank control), K562-HLA-G1, K562-HLA-G2, K562-HLA-G3, K562-HLA-G4, K562-HLA-G5, K562-HLA-G6 and K562-HLA-G7 in the logarithmic growth phase were used. The detection was conducted by intracellular flow cytometry.
(§3) Detection of intracellular molecule expression by flow cytometry: The cell cultures of K562, K562-HLA-G1, K562-HLA-G2, K562-HLA-G3, K562-HLA-G4, K562-HLA-G5, K562-HLA-G6, K562-HLA-G7 were collected in test tubes, centrifuged and washed twice with 2% BSA/PBS (250 g), then 250 μL of cell membrane-breaking agent (BD Cytofix/Cytoperm™) was added, fully mixed, and placed in the refrigerator at 4° C. for 20 minutes. Then 1 ml of BD Perm/Wash™ was added to centrifuge and wash twice (250 g).

HLA-G3 = biological target: T4, HLA-G3 (human, UniProt P17693-3 25-154); assay: intracellular flow cytometry, FITC-labeled antibody on permeabilised K562-HLA-G3 cells
T4 construct: also called HLA-G isoform standard protein HLA-G3; K562-HLA-G3
Experimental: as §2, §3

HLA-G4 = biological target: T5, HLA-G4 (human, UniProt P17693-4 25-246); assay: intracellular flow cytometry, FITC-labeled antibody on permeabilised K562-HLA-G4 cells
T5 construct: also called HLA-G isoform standard protein HLA-G4; K562-HLA-G4
Experimental: as §2, §3

HLA-G5 = biological target: T6, HLA-G5 (human, UniProt P17693-5 25-319); assay: intracellular flow cytometry, FITC-labeled antibody on permeabilised K562-HLA-G5 cells
T6 construct: also called HLA-G isoform standard protein HLA-G5; K562-HLA-G5
Experimental: as §2, §3

HLA-G6 = biological target: T7, HLA-G6 (human, UniProt P17693-6 25-227); assay: intracellular flow cytometry, FITC-labeled antibody on permeabilised K562-HLA-G6 cells
T7 construct: also called HLA-G isoform standard protein HLA-G6; K562-HLA-G6
Experimental: as §2, §3

[2] = biological target: T1, immunogen peptide QTDRMNLQTLRGYYNQSEAS …; assay: ELISA on coated peptide, logistic fit, affinity constant = 150000 x dilution factor / antibody concentration
Experimental: as §1

binding result (HLA-G7): binds | binding result (HLA-G2): binds | binding result (HLA-G3): binds | binding result (HLA-G4): binds | binding result (HLA-G5): binds | binding result (HLA-G6): binds
B1: monoclonal antibody YWHG-1 against HLA-G molecule (antibody, V domains shown)
VH: QLQESGTVLVRPGASVKLSCKASGYIFTSYWINWVKQRPGQGLEWIGNIYPSDSYTNFNQKFEDKATLTVDTSSSTAYMQFSSPTSEDSAVYYCTRFGYPFDYWGQGTTLTVSS
VL: DIVITQDELSLTVSLGDQASISCRTSQSFVHSNGNIYLEWFLQKPGQSPKLLIYKVSSRFSGVPDRFSGSGSGTDFTLKISRVEAEDLGIYYCFQGSHVPPTFGGGTKLEIK
notes: FITC-labeled in the flow cytometry assay; also called hybridoma CCTCC NO: 202120
antibody dilution factor corresponding to 1/2 OD value [1]: 25600 fold dilution (of 1.9 mg/mL antibody) | Ka [2]: 2.02e+09 M⁻¹
